From patent US20240018189A1 (PROTAGONIST THERAPEUTICS, published 2024)
Starred links: 1 amine or outer side, 2 acyl side, 3 side chain; linkers in the order of their positions; H or OH if unused. Positions of bridges follow the written chain, without caps; N, C: chain ends. Non-standard residues stand in square brackets, D forms with d. Groups on a side chain read outwards from the residue. Chains are numbered I, II in the order given. No end group written: not given here. *: point of attachment. PEG12 = NCCOCCOCCOCCOCCOCCOCCOCCOCCOCCOCCOCCOCCC(=O)O; Dip = N[C@H](C(=O)O)C(c1ccccc1)c1ccccc1; γGlu = O=C(O)[C@H](CCC(=O)[*:2])N[*:1]; Palmitoyl = CCCCCCCCCCCCCCCC(=O)*; 2Pal = N[C@@H](Cc1ccccn1)C(=O)O; β3hF = N[C@H](CC(=O)O)Cc1ccccc1; NMeL = CN[C@@H](CC(C)C)C(=O)O; Isovaleryl = CC(C)CC(=O)*; Npc = nipecotic acid; Ahx = NCCCCCC(=O)O; βAla = NCCC(=O)O; Sar = CNCC(=O)O

T1: human ferroportin (SLC40A1) fused in frame with GFP (human) (UniProt Q9NP59)
T1 sequence (looked up): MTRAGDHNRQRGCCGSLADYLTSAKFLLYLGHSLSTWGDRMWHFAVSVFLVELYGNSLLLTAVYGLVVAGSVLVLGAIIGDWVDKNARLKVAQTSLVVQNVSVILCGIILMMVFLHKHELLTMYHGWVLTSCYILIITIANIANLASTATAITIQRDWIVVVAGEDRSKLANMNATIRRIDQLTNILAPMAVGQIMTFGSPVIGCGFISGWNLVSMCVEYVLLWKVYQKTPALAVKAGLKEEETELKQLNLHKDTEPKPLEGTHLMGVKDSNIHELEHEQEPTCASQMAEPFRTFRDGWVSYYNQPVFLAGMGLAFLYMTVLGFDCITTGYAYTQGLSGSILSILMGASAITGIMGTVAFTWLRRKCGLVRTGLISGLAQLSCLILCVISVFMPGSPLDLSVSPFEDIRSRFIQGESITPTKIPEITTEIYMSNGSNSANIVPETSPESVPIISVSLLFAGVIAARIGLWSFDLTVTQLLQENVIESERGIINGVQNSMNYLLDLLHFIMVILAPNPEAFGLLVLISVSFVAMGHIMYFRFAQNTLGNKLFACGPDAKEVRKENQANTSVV


Molecular target: T1, human ferroportin (SLC40A1) fused in frame with GFP (human)
Assay: cell-based or functional assay

Row | FPN EC50 | IC50: FPN internalisation | Binder
1 | 15.6 nM | – | Isovaleryl-DTHFPCIK([γGlu-Palmitoyl])FEPRSKGC (disulfide 6-16 (inferred)) [Compd. ID 218]
2 | 9.59 nM | – | Isovaleryl-DTHFPC[NMeL]K([γGlu-Palmitoyl])FEPRSKGCK-NH2 (disulfide 6-16 (inferred)) [Compd. ID 244]
3 | – | 21.7 nM | DTHXPCIKXKC (N-term isovaleric acid; 4 Dpa; 8 Lys(Ahx_Palm); 9 2Pal; 10 (D)Lys; C-term NH2) [Seq. No. 321]
4 | – | 10.6 nM | Isovaleryl-DTH[Dip]PCI[βAla][β3hF][dK]C-NH2 (disulfide 6-11 (inferred)) [Seq. No. 323]
5 | > 3000 nM | – | DTHXPCIKXKKC (N-term isovaleric acid; 4 Dpa; 8 (D)Lys(PEG12_OMe); 9 bhPhe; 10 Lys(1PEG2_1PEG2_IsoGlu_C18_Diacid); 11 (D)Lys(PEG12_OMe); C-term NH2) [Compd. ID 253]
6 | 7.19 nM | – | Isovaleryl-DTHFPCIK(Ac)FK([PEG12-Palmitoyl])PK(Ac)SK(Ac)[Sar]CK-NH2 (disulfide 6-16 (inferred)) [Compd. ID 214]
7 | 16.6 nM | – | Isovaleryl-DTHFPCLK([γGlu-Palmitoyl])FEPRSKGCK-NH2 (disulfide 6-16 (inferred)) [Compd. ID 216]
8 | – | 13.7 nM | Seq. No. 317 (disulfide I:6-II:4) peptide 1: Isovaleryl-DTHFPCIK([γGlu-Palmitoyl])FEPR peptide 2: SKGCK-NH2
9 | 12.6 nM | – | Isovaleryl-DTHFPCIK([γGlu-Palmitoyl])FEPR [Compd. ID 219]
10 | – | 9.72 nM | Isovaleryl-DTH[Dip]PCIK([Ahx-Palmitoyl])[2Pal]C-NH2 (disulfide 6-10 (inferred)) [Seq. No. 320]

The remaining lines, values behind:

Row | Binder | FPN EC50 | IC50: FPN internalisation
11 | DTHXPCIKXKC (N-term isovaleric acid; 4 Dpa; 8 Lys[Ahx-isoGlu-Palm]; 9 bhPhe; 10 (D)Lys; C-term NH2) [Compd. ID 5] | 0.75 nM | –
12 | DTHXPCIKXKKC (N-term isovaleric acid; 4 Dpa; 8 (D)Lys; 9 bhPhe; 10 Lys(1Peg2_1Peg2_Ahx_C18_Diacid); 11 (D)Lys; C-term NH2) [Compd. ID 43] | 283 nM | –
13 | Isovaleryl-DTH[Dip]PC[NMeL][dK][β3hF]K([Ahx-Palmitoyl])[dK]C-NH2 (disulfide 6-12 (inferred); not fully specified) [Compd. ID 201] | 12.5 nM | –
14 | DTHXPCIKXKKC (N-term isovaleric acid; 4 Dpa; 8 (D)Lys; 9 bhPhe; 10 Lys(2Peg11′_KKKGS_Palm); 11 (D)Lys; C-term NH2) [Compd. ID 45] | 24.5 nM | –
15 | Isovaleryl-DTH[Dip][Npc]CI[dK][β3hF]K([Ahx-Palmitoyl])[dK]C-NH2 (disulfide 6-12 (inferred)) [Compd. ID 4] | 6.35 nM | –
16 | Isovaleryl-DTH[Dip]PCI[β3hF]K([Ahx-Palmitoyl])[dK]C-NH2 (disulfide 6-11 (inferred)) [Compd. ID 206] | 10.8 nM | –
17 | DTHXPCIKXKKC (N-term isovaleric acid; 4 Dpa; 8 (D)Lys; 9 bhPhe; 10 Lys(2Peg11′_KKK_Palm); 11 (D)Lys; C-term NH2) [Compd. ID 44] | 37.9 nM | –
18 | DTHFPCIKXKKC (not fully specified; N-term isovaleric acid; 4 MePhe; 8 (D)Lys; 9 bhPhe; 10 Lys(Ahx_Palm); 11 (D)Lys; C-term NH2) [Compd. ID 203] | 28 nM | –
19 | DTHXPCIKXKC (N-term isovaleric acid; 4 Dpa; 8 Lys[isoGlu-Palm]; 9 bhPhe; 10 (D)Lys; C-term NH2) [Compd. ID 6] | 6.16 nM | –
20 | DTHFPCIKXKKC (N-term isovaleric acid; 8 (D)Lys; 9 bhPhe; 10 Lys(Palm); C-term NH2) [Compd. ID 205] | 4.23 nM | –
21 | DTHXPCIKXKKC (N-term isovaleric acid; 4 Dpa; 8 (D)Lys; 9 bhPhe; 10 Lys(1Peg2_1Peg2_IsoGlu_C18_Diacid); 11 (D)Lys; C-term NH2) [Compd. ID 42] | 1700 nM | –
